The test has as its target T1, human fibrinogen free from plasminogen and von Willebrand factor (Enzyme Research Laboratory) (human, UniProt P02671 20-629; P02675 31-491; P02679 27-437).
T1 construct: It was bought as purified protein and coated on plates; also called Fg; immobilized human fibrinogen
T1 sequence 1: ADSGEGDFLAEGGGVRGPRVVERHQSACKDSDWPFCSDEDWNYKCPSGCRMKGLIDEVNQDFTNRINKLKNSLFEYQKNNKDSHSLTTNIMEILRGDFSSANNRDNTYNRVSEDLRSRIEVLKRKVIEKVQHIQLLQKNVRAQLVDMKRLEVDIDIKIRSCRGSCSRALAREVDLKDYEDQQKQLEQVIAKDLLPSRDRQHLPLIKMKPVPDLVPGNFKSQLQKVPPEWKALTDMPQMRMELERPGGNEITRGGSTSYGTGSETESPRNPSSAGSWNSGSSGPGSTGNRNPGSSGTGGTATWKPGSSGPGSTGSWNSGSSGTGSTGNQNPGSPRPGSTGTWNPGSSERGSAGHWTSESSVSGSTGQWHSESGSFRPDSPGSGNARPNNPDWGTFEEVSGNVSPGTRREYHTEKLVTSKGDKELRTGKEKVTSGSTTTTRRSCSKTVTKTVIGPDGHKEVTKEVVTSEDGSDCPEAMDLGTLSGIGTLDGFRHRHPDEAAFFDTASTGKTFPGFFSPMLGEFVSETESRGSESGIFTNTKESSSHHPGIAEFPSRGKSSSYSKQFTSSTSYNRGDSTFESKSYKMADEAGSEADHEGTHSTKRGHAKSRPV
T1 sequence 2: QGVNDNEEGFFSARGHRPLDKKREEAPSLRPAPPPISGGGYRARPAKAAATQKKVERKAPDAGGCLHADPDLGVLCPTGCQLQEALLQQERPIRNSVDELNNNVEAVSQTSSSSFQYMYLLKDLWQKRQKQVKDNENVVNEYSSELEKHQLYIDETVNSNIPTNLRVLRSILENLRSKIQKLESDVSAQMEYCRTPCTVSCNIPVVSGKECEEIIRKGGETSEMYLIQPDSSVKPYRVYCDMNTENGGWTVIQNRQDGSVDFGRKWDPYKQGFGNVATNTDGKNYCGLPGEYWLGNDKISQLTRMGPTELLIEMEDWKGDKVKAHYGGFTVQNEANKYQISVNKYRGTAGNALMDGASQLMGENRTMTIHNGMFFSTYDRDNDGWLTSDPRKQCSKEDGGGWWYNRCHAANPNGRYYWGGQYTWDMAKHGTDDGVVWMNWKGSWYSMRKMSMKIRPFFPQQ
T1 sequence 3: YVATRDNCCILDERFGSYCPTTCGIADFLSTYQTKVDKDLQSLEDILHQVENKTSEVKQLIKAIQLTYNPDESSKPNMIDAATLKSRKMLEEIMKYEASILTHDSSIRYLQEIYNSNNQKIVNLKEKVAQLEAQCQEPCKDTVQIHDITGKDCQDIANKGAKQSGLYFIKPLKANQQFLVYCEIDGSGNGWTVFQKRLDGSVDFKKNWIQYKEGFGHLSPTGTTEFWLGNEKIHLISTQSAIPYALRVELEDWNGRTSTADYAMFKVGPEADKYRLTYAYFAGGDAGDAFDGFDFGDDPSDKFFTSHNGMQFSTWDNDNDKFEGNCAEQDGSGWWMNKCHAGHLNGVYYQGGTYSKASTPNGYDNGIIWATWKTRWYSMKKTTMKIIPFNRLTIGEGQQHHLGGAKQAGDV
In words: ELISA, purified protein on immobilized human fibrinogen, detected with mouse anti-EbpA^Full. In general terms: An ELISA detects its analyte on a solid surface through an enzyme-linked reagent.

B1: 6xHis-EbpA^NTD (N-terminal domain of EbpA, residues 115 to 577) (other)
chain: PEKITVPENTKETNKNDSAPEKTEQPTATEEVTNPFAEARMAPATLRANLALPLIAPQYTTDNSGTYPTANWQPTGNQNVLNHQGNKDGSAQWDGQTSWNGDPTNRTNSYIEYGGTGDQADYAIRKYARETTTPGLFDVYLNVRGNVQKEITPLDLVLVVDWSGSMNENNRIGEVQKGVNRFVDTLADSGITNNINMGYVGYSSDGYNNNAIQMGPFDTVKNPIKNITPSSTRGGTFTQKALRDAGDMLATPNGHKKVIVLLTDGVPTFSYKVSRVQTEADGRFYGTQFTNRQDQPGSTSYISGSYNAPDQNNINKRINSTFIATIGEAMALKQRGIEIHGLGIQLQSDPRANLSKQQVEDKMREMVSADENGDLYYESADYAPDISDYLAKKAVQISGTVVNGKVVDPIAEPFKYEPNTLSMKSVGPVQVQTLPEVSLTGATINSNEIYLGKGQEIQIHYQV
notes: not shown: N-terminal 6xHis tag from vector pQE-30Xa
Take B1: the binding result is reported as “binds”.

B2: 6xHis-EbpA^CTD (C-terminal domain of EbpA, residues 594 to 1077) (other)
chain: MNGRTTQPLATAPEKVDFGVPSGKAPGVKLNVKKIWEEYDQDPTSRPDNVIYEISRKQVTDTANWQTGYIKLSKPENDTSNSWERKNVTQLSKTADESYQEVLGLPQYNNQGQAFNYQTTRELAVPGYSQEKIDDTTWKNTKQFKPLDLKVIKNSSSGEKNLVGAVFELSGKNVQTTLVDNKDGSYSLPKDVRLQKGERYTLTEVKAPAGHELGKKTTWQIEVSEQGKVSIDGQEVTTTNQVIPLEIENKFSSLPIRIRKYTMQNGKQVNLAEATFALQRKNAQGSYQTVATQKTDTTGLSYFKISEPGEYRMVEQSGPLGYDTLAGNYEFTVDKYGKIHYAGKNIEENAPEWTLTHQNNLKPFDLTVHKKADNQTPLKGAKFRLTGPDTDIELPKDGKETDTFVFENLKPGKYVLTETFTPEGYQGLKEPIELIIREDGSVTIDGEKVADVLISGEKNNQITLDVTNQAKVPLPETGGIGRLW
notes: Plasmid pSJH-541; not shown: N-terminal 6xHis tag from vector pQE-30Xa
With B2, the binding result is on record as “no binding”.

(Values after US20180055923A1 (WASHINGTON UNIVERSITY, published 2018).)
